Reference: patent US20260250399A1 (VIRIDIAN THERAPEUTICS, published 2026)

Columns and labels:
[1] = molecular target: T1, IGF-1R on cells (A549 human lung adenocarcinoma cells; primary human ocular choroid fibroblasts, HOCF) (human, UniProt P08069 31-1367); assay: cell-based or functional assay
[2] = molecular target: T1, IGF-1R on cells (A549 human lung …); assay: flow cytometry on HOCF cells, binding dose response curve
Protocol: (§1) Cell binding: A549 human lung adenocarcinoma cells or primary human ocular choroid fibroblasts (HOCF) were incubated with varying concentrations of VRDN-5000 or teprotumumab. A single dose 50 nM IgG1 isotype control was used as negative control. Unbound antibody was removed by washing, and the cells were incubated with an Alexa Fluor 488-goat anti-human antibody and a cell impermeable dye to gate live cells. The median fluorescence intensity (MFI) of viable cells was measured by flow cytometry and the data were analyzed using FlowJo software. Dose curves were fitted using a non-linear regression model; log (agonist) vs response-variable slope (four parameters).
FIG. 5A-B illustrate VRDN-5000 binding to HOCF cells, which was assessed by flow cytometry and found to have largely similar binding as teprotumumab at three different concentrations.

[3] = molecular target: T1, IGF-1R on cells (A549 human lung …); assay: flow cytometry on A549 cells, binding dose response curve
Protocol: as §1
VRDN-5000 Binds With High Affinity To IGF-1R On A549 Cells. As illustrated in FIG. 3A-C, VRDN-5000 binding to A549 cells was assessed by flow cytometry and found to have similar binding distribution as teprotumumab at three different concentrations.

T1 sequence (P08069 31-1367): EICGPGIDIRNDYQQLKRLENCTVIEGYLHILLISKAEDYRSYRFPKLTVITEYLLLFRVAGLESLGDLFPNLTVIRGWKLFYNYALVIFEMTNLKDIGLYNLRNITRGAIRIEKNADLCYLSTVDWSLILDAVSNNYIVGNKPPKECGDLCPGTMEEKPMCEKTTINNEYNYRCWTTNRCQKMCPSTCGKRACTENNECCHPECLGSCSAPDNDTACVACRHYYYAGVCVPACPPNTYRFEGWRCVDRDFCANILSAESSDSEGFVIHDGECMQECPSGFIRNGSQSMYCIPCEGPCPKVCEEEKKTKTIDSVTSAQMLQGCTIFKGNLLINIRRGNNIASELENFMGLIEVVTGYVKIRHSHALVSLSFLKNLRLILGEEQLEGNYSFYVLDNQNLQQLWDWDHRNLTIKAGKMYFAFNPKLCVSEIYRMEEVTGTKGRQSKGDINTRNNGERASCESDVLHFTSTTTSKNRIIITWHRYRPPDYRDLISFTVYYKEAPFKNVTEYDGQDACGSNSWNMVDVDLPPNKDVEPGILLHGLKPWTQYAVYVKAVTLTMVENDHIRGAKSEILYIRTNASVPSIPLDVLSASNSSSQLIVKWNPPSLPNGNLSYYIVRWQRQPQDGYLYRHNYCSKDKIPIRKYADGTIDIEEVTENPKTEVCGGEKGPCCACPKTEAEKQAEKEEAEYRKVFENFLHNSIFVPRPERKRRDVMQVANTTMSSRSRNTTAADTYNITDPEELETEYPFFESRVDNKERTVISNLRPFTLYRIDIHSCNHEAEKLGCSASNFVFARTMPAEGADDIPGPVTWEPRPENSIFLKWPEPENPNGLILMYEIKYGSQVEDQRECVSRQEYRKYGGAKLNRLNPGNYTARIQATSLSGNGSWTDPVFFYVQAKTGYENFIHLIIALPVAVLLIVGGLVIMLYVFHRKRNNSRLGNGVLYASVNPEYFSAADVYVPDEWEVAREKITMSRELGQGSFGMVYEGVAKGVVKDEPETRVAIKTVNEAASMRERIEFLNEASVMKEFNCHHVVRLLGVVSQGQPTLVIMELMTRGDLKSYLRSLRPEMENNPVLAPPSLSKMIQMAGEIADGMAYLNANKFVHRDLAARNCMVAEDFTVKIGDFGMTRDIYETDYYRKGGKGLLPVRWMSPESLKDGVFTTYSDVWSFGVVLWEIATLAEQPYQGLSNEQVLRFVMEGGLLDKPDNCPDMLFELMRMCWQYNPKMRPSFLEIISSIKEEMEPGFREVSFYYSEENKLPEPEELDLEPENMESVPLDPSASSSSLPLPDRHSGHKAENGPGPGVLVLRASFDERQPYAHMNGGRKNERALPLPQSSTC

B1: VRDN-5000 (antibody, human IgG1, kappa)
heavy: not shown
light: DVVMTQTPLSLPVSLGDPASISCRSSQSIVHSNVNTYLEWYLQKPGQSPRLLIYKVSNRFSGVPDRFSGSGAGTDFTLRISRVEAEDLGIYYCFQGSHVPPTFGGGTKLEIKRTVAAPSVFIFPPSDEQLKSGTASVVCLLNNFYPREAKVQWKVDNALQSGNSQESVTEQDSKDSTYSLSSTLTLSKADYEKHKVYACEVTHQGLSSPVTKSFNRGEC
notes: neither was used; also called VRDN-001
In the case of B1, the “IC50 of IGF-1 stimulated receptor phosphorylation on A549 cells (pIGF-1R ELISA)” value [1] is reported as 0.09 nM, the “IC50 of IGF-1 stimulated receptor phosphorylation on HOCF cells (pIGF-1R ELISA)” value [1] is reported as 0.09 nM and the EC50 [2] is reported as 0.4 nM. For the same binder, the EC50 [3] was 0.1 nM.
